The target in this assay is recombinant human GST–PBD (UniProt P53350). Put plainly: in vitro binding assay, western blot quantification. As to conditions: read off a plot.
Sequence of UniProt P53350 (P53350 whole entry, looked up): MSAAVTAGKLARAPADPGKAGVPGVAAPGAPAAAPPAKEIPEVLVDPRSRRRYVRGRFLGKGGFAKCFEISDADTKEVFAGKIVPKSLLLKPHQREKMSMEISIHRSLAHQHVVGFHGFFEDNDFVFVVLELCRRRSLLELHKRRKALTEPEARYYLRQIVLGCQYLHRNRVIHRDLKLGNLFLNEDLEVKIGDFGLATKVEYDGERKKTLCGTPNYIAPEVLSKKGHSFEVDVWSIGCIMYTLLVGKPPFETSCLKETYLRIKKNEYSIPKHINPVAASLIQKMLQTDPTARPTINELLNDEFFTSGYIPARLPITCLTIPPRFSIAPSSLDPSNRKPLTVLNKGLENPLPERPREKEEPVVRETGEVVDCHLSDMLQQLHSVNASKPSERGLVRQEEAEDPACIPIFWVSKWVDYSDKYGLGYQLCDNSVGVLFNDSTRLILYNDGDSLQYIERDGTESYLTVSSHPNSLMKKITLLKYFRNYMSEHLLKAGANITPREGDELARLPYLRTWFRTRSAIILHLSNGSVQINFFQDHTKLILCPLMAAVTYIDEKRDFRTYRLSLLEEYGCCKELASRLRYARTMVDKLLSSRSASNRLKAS

As for “MBP–CTa (WT Ana1 CTa fragment), pre-treated with PLK1 S10T”, for the setting “single repeat PLK1 + CTa, MBP–CTa pre-treated with PLK1 (+), parent: est. 1.0”, the response came to 1.1 a.u.

Consider “MBP–CTb (WT Ana1 CTb fragment), phosphorylated by Aurora A in vitro S10T”, for which the response (repeat Aurora #1, MBP–CTb pre-treated with Aurora A (+), parent: est. 1.4) came to 1.2 a.u and the response (repeat Aurora #2, MBP–CTb pre-treated with Aurora A (+), parent: est. 1.5) is 1.2 a.u.

For the substance “MBP–CTb (WT Ana1 CTb fragment), phosphorylated by PLK1 in vitro (from UniProt Q9VC64) S10T”, the response came to 1.1 a.u (repeat PLK1 #1, MBP–CTb pre-treated with PLK1 (+), parent: est. 1.7); 1.5 a.u (repeat PLK1 #2, MBP–CTb pre-treated with PLK1 (+), parent: est. 1.9); 1.4 a.u (repeat PLK1 #3, MBP–CTb pre-treated with PLK1 (+), parent: est. 1.8); 1.3 a.u (repeat PLK1 #4, MBP–CTb pre-treated with PLK1 (+), parent: est. 2.2).

With “MBP–CTb (WT Ana1 CTb fragment), pre-treated with buffer S10T”, the response runs as follows: (repeat Aurora #1, no kinase (-), parent: est. 1.4) 1 a.u; (repeat Aurora #2, no kinase (-), parent: est. 1.3) 1 a.u; (repeat PLK1 #1, no kinase (-), parent: est. 1.1) 1 a.u; (repeat PLK1 #2, no kinase (-), parent: est. 1.2) 1 a.u; (repeat PLK1 #3, no kinase (-), parent: est. 1.3) 1 a.u; (repeat PLK1 #4, no kinase (-), parent: est. 1.3) 1 a.u.
